{
  "source": "paper PMC10920428",
  "about": "“Expression, purification, and characterization of transmembrane protein homogentisate solanesyltransferase” (Applied Microbiology and Biotechnology, 2024)",
  "key": {"[1]": {"substrate": "CC(C)=CCC/C(C)=C/CC/C(C)=C/CO[P@@](=O)(O)OP(=O)(O)O", "test": "cells, lysate or membranes", "details": "Mg2+ ([…] magnesium chloride in assay)"}, "[2]": {"substrate": "O=C(O)Cc1cc(O)ccc1O", "test": "cells, lysate or membranes", "details": "Mg2+ ([…] magnesium chloride in assay)"}},
  "data": [
    {"protein": "homogentisate solanesyltransferase (CrHST) (Chlamydomonas reinhardtii) (protein) SAAVPAPLPNGGNDESFAQKLANFPNAFWKFLRPHTIRGTILGTTAVTAKVLMENPGCIDWALLPKALLGLVALLCGNGYIVGINQIYDVDIDVVNKPFLPVASGELSPALAWGLCLSLAAAGAGIVAANFGNLITSLYTFGLFLGTVYSVPPLRLKQYAVPAFMIIATVRGFLLNFGVYSATRAALGLPFEWSPAVSFITVFVTLFATVIAITKDLPDVEGDQANNISTFATRMGVRNVALLAIGLLMANYLGAIALALTYSTAFNVPLMAGAHAILAATLALRTLKLHAASYSREAVASFYRWIWNLFYAEYALLPFL", "values": [
      {"measurement": "Km", "setting": "[1]", "result": "22.76 ± 1.70", "unit": "µM"},
      {"measurement": "Km", "setting": "[2]", "result": "48.54 ± 3.89", "unit": "µM"}
    ]}
  ]
}
